Results as given in US10039841B2, “Gene therapy vector system and prodrug genes” (The Industry & Academic Cooperation in Chungnam National …, priority 2016, dated 2018).

B1: CD4: CD gene where 32 sites showing recombination were all mutated (SEQ. ID. NO: 19) (nucleic acid)
DNA: ATGGTGACAGGGGGAATGGCAAGCAAGTGGGATCAGAAGGGTATGGACATTGCCTATGAGGAGGCGGCCTTAGGTTACAAAGAGGGTGGTGTTCCTATTGGCGGATGTCTTATCAATAACAAAGACGGAAGTGTTCTCGGTCGTGGTCACAACATGAGATTTCAAAAGGGATCCGCCACACTACATGGTGAGATCTCCACTTTGGAGAACTGCGGCAGGCTGGAAGGCAAGGTGTACAAAGATACCACTCTGTACACCACCCTGTCTCCATGCGACATGTGTACAGGTGCCATCATCATGTATGGTATTCCACGCTGTGTTGTCGGTGAGAACGTTAATTTCAAAAGTAAGGGCGAGAAATACTTGCAAACCAGGGGCCACGAGGTGGTGGTTGTTGACGATGAGAGGTGTAAAAAGATCATGAAACAATTTATCGATGAAAGACCTCAGGACTGGTTCGAGGACATCGGCGAGTAA
modifications: CD4 gene
B2: CD8: yeast CD gene optimized by human codon (SEQ. ID. NO: 23) (nucleic acid)
DNA: ATGGTTACTGGGGGAATGGCATCTAAGTGGGATCAGAAAGGTATGGACATCGCTTATGAAGAGGCTGCTCTCGGCTACAAAGAGGGTGGAGTGCCTATCGGAGGGTGCCTGATCAACAACAAGGACGGCAGTGTGCTGGGGAGGGGCCACAATATGAGGTTCCAAAAAGGCTCCGCCACTCTCCACGGGGAAATTAGTACCCTCGAGAATTGCGGACGATTGGAAGGGAAGGTGTACAAGGATACAACACTGTACACCACCCTGTCACCCTGTGATATGTGCACAGGCGCCATTATCATGTACGGAATCCCTAGATGTGTCGTGGGGGAGAATGTAAACTTCAAAAGTAAGGGGGAGAAATATCTCCAGACCCGGGGGCACGAAGTCGTCGTTGTGGACGATGAACGGTGTAAGAAGATCATGAAGCAGTTTATCGATGAGAGGCCCCAGGACTGGTTCGAAGACATCGGGGAATAA
modifications: CD8 gene
B3: CD7: yeast CD gene optimized by human codon (SEQ. ID. NO: 22) (nucleic acid)
DNA: ATGGTAACTGGTGGCATGGCCTCAAAGTGGGATCAGAAAGGAATGGACATCGCTTACGAGGAGGCCGCACTGGGCTATAAGGAGGGCGGCGTCCCTATAGGCGGTTGCCTGATTAACAATAAAGACGGCTCAGTGCTGGGAAGGGGGCACAACATGAGATTTCAGAAAGGCAGCGCAACTCTGCACGGCGAAATCTCCACTCTGGAGAACTGCGGGCGGCTGGAGGGAAAGGTTTATAAAGATACTACCTTGTATACAACTCTGTCCCCCTGCGATATGTGCACCGGCGCCATCATAATGTACGGAATACCCAGGTGCGTGGTGGGAGAGAACGTGAATTTTAAGTCAAAAGGTGAGAAGTACCTGCAGACTCGCGGCCATGAGGTGGTTGTTGTTGACGATGAAAGGTGCAAGAAGATTATGAAGCAGTTCATTGATGAAAGACCCCAGGACTGGTTTGAGGATATCGGAGAGTAG
modifications: CD7 gene
B4: CD6: yeast CD gene optimized by human codon (SEQ. ID. NO: 21) (nucleic acid)
DNA: ATGGTTACTGGAGGGATGGCCAGTAAATGGGACCAGAAGGGTATGGATATTGCATACGAGGAGGCCGCTTTGGGATACAAGGAGGGGGGTGTCCCTATAGGCGGTTGCCTGATCAATAATAAAGACGGCTCTGTCTTGGGAAGAGGACACAATATGCGCTTTCAGAAGGGAAGCGCCACCCTGCATGGAGAGATCTCTACCCTCGAAAATTGCGGAAGGCTCGAAGGCAAAGTTTACAAAGATACCACCCTCTACACAACGCTGTCCCCCTGTGATATGTGCACCGGTGCCATTATCATGTATGGCATCCCACGCTGCGTTGTAGGAGAGAATGTAAACTTCAAATCCAAGGGAGAGAAGTATCTCCAGACCCGAGGGCACGAAGTTGTGGTGGTGGACGATGAAAGGTGTAAGAAGATCATGAAGCAGTTCATAGATGAGCGGCCTCAGGACTGGTTCGAGGATATTGGCGAATGA
modifications: CD6 gene
B5: yCD: yeast cytosine deaminase gene (SEQ. ID. NO: 16) (nucleic acid, listed as Saccharomyces cerevisiae)
DNA: ATGGTGACAGGGGGAATGGCAAGCAAGTGGGATCAGAAGGGTATGGACATTGCCTATGAGGAGGCGGCCTTAGGTTACAAAGAGGGTGGTGTTCCTATTGGCGGATGTCTTATCAATAACAAAGACGGAAGTGTTCTCGGTCGTGGTCACAACATGAGATTTCAAAAGGGATCCGCCACACTACATGGTGAGATCTCCACTTTGGAAAACTGTGGGAGATTAGAGGGCAAAGTGTACAAAGATACCACTTTGTATACGACGCTGTCTCCATGCGACATGTGTACAGGTGCCATCATCATGTATGGTATTCCACGCTGTGTTGTCGGTGAGAACGTTAATTTCAAAAGTAAGGGCGAGAAATATTTACAAACTAGAGGTCACGAGGTTGTTGTTGTTGACGATGAGA

Tested on: U-87MG cells
Assay: Investigation of drug sensitivity against GCV and 5-FC (cell death of serially infected cells)
Format: cell-based
Method: The drug sensitivity against ganciclovir (GCV) and 5-fluorocytosine (5-FC) of the virus spRRVe-P1-yCD/sRRVgp-P1-TK produced in Example <3-1> was investigated.
Overall, 293T cells were co-transfected with spRRVe-P1-yCD/sRRVgp-P1-TK by using PLUS reagent (Invitrogen) and lipofectamine (Invitrogen). 2 days later, the supernatant was obtained. The U-87MG cells sub-cultured on the previous day in a 6-well plate at the density of 1.5×10^3 cells/well were added with 8 μl/ml of polybrene, followed by infection with the virus for 8 hours. 5 days after the infection (post-infection 5 d), the supernatant was obtained. The U-87MG cells sub-cultured on the previous day in a 6-well plate at the density of 1.5×10^3 cells/well were infected with the supernatant (p1). The infection was continued serially until p4 phase. The cells of each phase were treated with trypsin-EDTA to prepare single cells. The prepared single cells were distributed in a 12-well plate at the density of 1.5×10^3 cells/well. From the next day of the sub-culture, the cells were treated with […] of GCV and 1 mM 5-FC for 5 days or 8 days, followed by investigation of cell death.
The drug sensitivity of the virus produced in Example <6-2> against GCV and 5-FC was investigated by the same manner as described in Example <3-5> except that the virus produced in Example <6-2> was co-transfected.
The drug sensitivity of the virus produced in Example <7-2> against GCV and 5-FC was investigated by the same manner as described in Example <3-5> except that the virus produced in Example <7-2> was co-transfected to infect stepwise from p1 to p9 and cell death was observed after treating GCV and 5-FC for 9 or 12 days, respectively.
The drug sensitivity of the virus produced in Example <8-2> against GCV and 5-FC was investigated by the same manner as described in Example <3-5> except that the virus produced in Example <8-2> was co-transfected to infect stepwise from p1 to p11 and cell death was observed after treating GCV and 5-FC for 5 or 7 days.
The drug sensitivity of the virus produced in Example <10-2> against GCV and 5-FC was investigated by the same manner as described in Example <3-5> except that the virus produced in Example <10-2> was co-transfected to infect stepwise from p1 to p5 and cell death was observed after treating GCV and 5-FC for 6 or 8 days, respectively.
The drug sensitivity of the virus produced in Example <11-2> against GCV and 5-FC was investigated by the same manner as described in Example <3-5> except that the virus produced in Example <11-2> was co-transfected to infect stepwise from p1 to p9 and cell death was observed after treating GCV and 5-FC for 8 or 12 days, respetively.

[1] = Example 8-3, combined with sRRVgp-P2-TK, p1 to p11, treated 5 or 7 days

Molecule	drug sensitivity against 5-FC [1]	further results
B1	–	drug sensitivity against 5-FC (Example 6-3, spRRVe-P1-CDs/sRRVgp-P1-TK, p1-p4): weak drug sensitivity
B2	excellent drug sensitivity, compared to yCD gene	–
B3	excellent drug sensitivity, compared to yCD gene	–
B4	excellent drug sensitivity, compared to yCD gene	drug sensitivity against GCV and 5-FC (Example 10-3, spRRVe-P2-CDs (CD6, CD10-CD16)/sRRVgp-P2-TK, p1 to p5, treated 6 or 8 days): most excellent drug sensitivity
B5	–	drug sensitivity against 5-FC (Example 3-5, 1 mM 5-FC for 5 days or 8 days, post-infection 5 d to p4): low drug sensitivity
